Results on three variants are retold here after FireProtDB (doi:10.1021/bi020461s).

To fix the notation:
B1: Glutamate dehydrogenase, P96110 (parent)
chain: MPEKSLYEMAVEQFNRAASLMDLESDLAEVLRRPKRVLIVEFPVRMDDGHVEVFTGYRVQHNVARGPAKGGIRYHPDVTLDEVKALAFWMTWKTAVMNLPFGGGKGGVRVDPKKLSRNELERLSRRFFSEIQVIIGPYNDIPAPDVNTNADVMAWYMDTYSMNVGHTVLGIVTGKPVELGGSKGREEATGRGVKVCAGLAMDVLGIDPKKATVAVQGFGNVGQFAALLISQELGSKVVAVSDSRGGIYNPEGFDVEELIRYKKEHGTVVTYPKGERITNEELLELDVDILVPAALEGAIHAGNAERIKAKAVVEGANGPTTPEADEILSRRGILVVPDILANAGGVTVSYFEWVQDLQSFFWDLDQVRNALEKMMKGAFNDVMKVKEKYNVDMRTAAYILAIDRVAYATKKRGIYP

The variants in the data set derive from B1. To be noted: Thermotoga maritima (strain ATCC 43589 / DSM 3109 / JCM 10099 / NBRC 100826 / MSB8), pH 7, CD, sodium phosphate 20 mM, reversible: yes, structure 1B26, whole UniProt chain shown.

Broadly, the Tm is the temperature at the midpoint of the melting transition.

As to K194A E232A, under “20 °C, GdnHCl”, the “ddG of mutation (higher = less stable)” value was -0.92 kcal/mol, the denaturant m value stood at 2.73 kcal/mol/M, the “denaturant midpoint (higher = more stable)” value (shortened to “denaturant midpoint”) turned out to be 2.04 M and the unfolding free energy was determined as 6.04 kcal/mol. Further, where the note is “20 °C, Urea”, the “ddG of mutation (higher = less stable)” value is -0.51 kcal/mol, the denaturant m value amounted to 1.42 kcal/mol/M, the “denaturant midpoint” value turned out to be 3.67 M and the unfolding free energy worked out at 5.36 kcal/mol. Besides, under “Thermal”, the Tm was 71.2 °C; the “change of melting temperature, mutant - wild type (higher = more stable)” value (shortened to “change of melting temperature, mutant”) was 1.7 °C; the “unfolding enthalpy (van 't Hoff)” value turned out to be 52.7 kcal/mol.
For the variant E232A, where the note is “20 °C, GdnHCl”, the “ddG of mutation (higher = less stable)” value worked out at 0.95 kcal/mol, the denaturant m value turned out to be 3 kcal/mol/M, the “denaturant midpoint” value came to 1.41 M and the unfolding free energy turned out to be 4.17 kcal/mol. Also, where the note is “20 °C, Urea”, the “ddG of mutation (higher = less stable)” value turned out to be 0.35 kcal/mol, the denaturant m value worked out at 1.6 kcal/mol/M, the “denaturant midpoint” value came out at 3.08 M and the unfolding free energy stood at 4.5 kcal/mol. The “ddG of mutation (higher = less stable)” value (69.5 °C, Thermal) was 0.17 kcal/mol. Where the note is “Thermal”, the midpoint of thermal melting (Tm) stood at 68.4 °C; the “change of melting temperature, mutant” value is -1.1 °C; the “unfolding enthalpy (van 't Hoff)” value was 41 kcal/mol.
As for R191A K194A, where the note is “20 °C, Urea”, the “ddG of mutation (higher = less stable)” value stood at 0.16 kcal/mol, the denaturant m value stood at 1.33 kcal/mol/M, the “denaturant midpoint” value is 3.21 M and the unfolding free energy worked out at 4.69 kcal/mol. In addition, for the setting “Thermal”, the melting temperature (Tm) worked out at 67.5 °C; the “change of melting temperature, mutant” value is -2 °C; the “unfolding enthalpy (van 't Hoff)” value worked out at 53.2 kcal/mol.
